# IntAct's records for PubMed 20126259
# B1: Serine/threonine-protein kinase RAD53 (Saccharomyces cerevisiae), P22216 (parent)
# chain: MENITQPTQQSTQATQRFLIEKFSQEQIGENIVCRVICTTGQIPIRDLSADISQVLKEKRSIKKVWTFGRNPACDYHLGNISRLSNKHFQILLGEDGNLLLNDISTNGTWLNGQKVEKNSNQLLSQGDEITVGVGVESDILSLVIFINDKFKQCLEQNKVDRIRSNLKNTSKIASPGLTSSTASSMVANKTGIFKDFSIIDEVVGQGAFATVKKAIERTTGKTFAVKIISKRKVIGNMDGVTRELEVLQKLNHPRIVRLKGFYEDTESYYMVMEFVSGGDLMDFVAAHGAVGEDAGREISRQILTAIKYIHSMGISHRDLKPDNILIEQDDPVLVKITDFGLAKVQGNGSFMKTFCGTLAYVAPEVIRGKDTSVSPDEYEERNEYSSLVDMWSMGCLVYVILTGHLPFSGSTQDQLYKQIGRGSYHEGPLKDFRISEEARDFIDSLLQVDPNNRSTAAKALNHPWIKMSPLGSQSYGDFSQISLSQSLSQQKLLENMDDAQYEFVKAQRKLQMEQQLQEQDQEDQDGKIQGFKIPAHAPIRYTQPKSIEAETREQKLLHSNNTENVKSSKKKGNGRFLTLKPLPDSIIQESLEIQQGVNPFFIGRSEDCNCKIEDNRLSRVHCFIFKKRHAVGKSMYESPAQGLDDIWYCHTGTNVSYLNNNRMIQGTKFLLQDGDEIKIIWDKNNKFVIGFKVEINDTTGLFNEGLGMLQEQRVVLKQTAEEKDLVKKLTQMMAAQRANQPSASSSSMSAKKPPVSDTNNNGNNSVLNDLVESPINANTGNILKRIHSVSLSQSQIDPSKKVKRAKLDQTSKGPENLQFS
# partner: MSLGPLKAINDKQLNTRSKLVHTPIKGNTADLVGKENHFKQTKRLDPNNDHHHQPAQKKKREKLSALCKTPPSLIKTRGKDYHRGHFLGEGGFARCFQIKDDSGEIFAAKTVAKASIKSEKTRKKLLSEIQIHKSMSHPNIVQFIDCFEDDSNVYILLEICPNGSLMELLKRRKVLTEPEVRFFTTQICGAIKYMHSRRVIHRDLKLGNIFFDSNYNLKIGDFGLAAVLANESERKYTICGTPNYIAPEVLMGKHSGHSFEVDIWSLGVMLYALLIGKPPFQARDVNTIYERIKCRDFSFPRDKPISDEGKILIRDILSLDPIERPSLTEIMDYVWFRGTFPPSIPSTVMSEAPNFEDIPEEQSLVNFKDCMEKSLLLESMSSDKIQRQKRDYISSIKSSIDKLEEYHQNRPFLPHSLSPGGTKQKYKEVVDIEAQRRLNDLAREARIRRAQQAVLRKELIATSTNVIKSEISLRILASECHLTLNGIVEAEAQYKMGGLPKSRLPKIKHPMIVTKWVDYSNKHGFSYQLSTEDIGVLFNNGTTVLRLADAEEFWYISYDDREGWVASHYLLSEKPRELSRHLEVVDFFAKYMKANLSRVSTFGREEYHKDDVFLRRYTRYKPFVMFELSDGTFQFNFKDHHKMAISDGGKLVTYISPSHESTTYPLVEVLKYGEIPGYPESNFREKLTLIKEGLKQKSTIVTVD
# Variants of: B1
# Conditions: with cdc5_yeast CDC5, P32562
row,Variant,effect of a mutation on the interaction
1,R70A;R605A,disrupting interaction
